Results from article PMC3042044.
The star is where a group is joined. CSCF3 = thiotrifluoroacetyl on lysine, FC(F)(F)C(=S)*; fluorescein = fluorescein label at the N-terminus

Tests used:
[1] = molecular target: Hst2 (yeast) (UniProt P53686); test: ITC
[2] = molecular target: SIRT3 (human); test: ITC
[3] = molecular target: SIRT3 (human); test: fluorescence polarisation

Sequence of UniProt P53686 (P53686 whole entry): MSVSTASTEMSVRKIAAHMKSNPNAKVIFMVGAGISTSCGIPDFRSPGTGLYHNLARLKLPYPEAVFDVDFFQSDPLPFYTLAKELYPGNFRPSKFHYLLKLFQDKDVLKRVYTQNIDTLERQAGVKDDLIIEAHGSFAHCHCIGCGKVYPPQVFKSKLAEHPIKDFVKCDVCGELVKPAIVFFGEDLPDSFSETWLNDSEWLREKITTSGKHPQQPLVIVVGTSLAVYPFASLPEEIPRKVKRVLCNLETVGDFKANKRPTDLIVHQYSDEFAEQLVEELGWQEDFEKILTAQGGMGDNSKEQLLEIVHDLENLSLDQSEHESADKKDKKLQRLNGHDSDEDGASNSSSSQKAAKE

Molecule | Kd [1] | Kd [2] | Kd [3]
Histone H3 peptide with pentafluoropropionyl-lysine at Lys-14 | 950 nM |  | 
fluorescein-LPKTRSGK(CSCF3)VMRR-OH |  | 900 nM | 1700 nM
